According to publication PMC7431705, “Angiogenesis Inhibition by a Short 13 Amino Acid Peptide Sequence of Tetrastatin, the α4(IV) NC1 Domain of Collagen IV” (Frontiers in Cell and Developmental Biology, 2020):
Where a SMILES comes first, the peptide text is derived from it. Bridges are numbered along the chain shown (N, C = ends).

Key:
α5β1 integrin [1] = biological target: T1, α5β1 integrin (Homo sapiens, UniProt P05556+P08648); experiment: Surface plasmon resonance (Biacore T200); format: binding; conditions: biotinylated QS-13 (QKISRCQVCVKYSK-biot) captured on streptavidin CM5 chip; α5β1 integrin 0.12-130 nM; HBS pH 7.4, 3.4 mM EDTA, 0.05% P20, 25°C; Req fitted to 1:1 model
T1 construct: purchased R&D Systems 3230-A5-050
T1 sequence (P08648 42-894 limits assumed): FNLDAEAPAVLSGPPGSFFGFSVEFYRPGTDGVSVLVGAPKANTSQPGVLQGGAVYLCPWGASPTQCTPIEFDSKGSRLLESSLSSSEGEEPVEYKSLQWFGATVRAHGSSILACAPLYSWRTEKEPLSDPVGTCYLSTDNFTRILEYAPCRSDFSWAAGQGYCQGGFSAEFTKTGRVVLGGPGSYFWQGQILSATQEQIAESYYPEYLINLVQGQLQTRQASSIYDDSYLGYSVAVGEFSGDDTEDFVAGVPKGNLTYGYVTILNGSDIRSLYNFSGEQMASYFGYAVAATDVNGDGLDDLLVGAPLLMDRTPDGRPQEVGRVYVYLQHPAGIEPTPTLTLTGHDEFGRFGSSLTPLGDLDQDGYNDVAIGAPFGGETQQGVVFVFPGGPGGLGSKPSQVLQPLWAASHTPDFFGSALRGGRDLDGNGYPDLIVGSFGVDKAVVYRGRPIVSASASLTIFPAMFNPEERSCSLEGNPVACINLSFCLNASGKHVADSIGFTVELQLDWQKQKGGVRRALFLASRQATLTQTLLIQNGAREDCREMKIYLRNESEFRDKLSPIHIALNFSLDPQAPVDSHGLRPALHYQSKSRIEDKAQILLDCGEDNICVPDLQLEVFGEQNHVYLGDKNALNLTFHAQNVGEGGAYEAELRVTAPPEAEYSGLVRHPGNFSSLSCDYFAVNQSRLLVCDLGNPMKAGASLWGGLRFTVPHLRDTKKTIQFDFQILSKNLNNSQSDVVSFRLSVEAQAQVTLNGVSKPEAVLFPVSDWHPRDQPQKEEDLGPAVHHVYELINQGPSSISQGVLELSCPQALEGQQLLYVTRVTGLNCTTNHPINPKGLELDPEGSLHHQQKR
T1 sequence (P08648 895-995 partner limits assumed): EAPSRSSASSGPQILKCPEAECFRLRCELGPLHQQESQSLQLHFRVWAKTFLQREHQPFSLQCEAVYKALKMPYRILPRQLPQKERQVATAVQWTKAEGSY
T1 sequence (P05556 21-728 limits assumed): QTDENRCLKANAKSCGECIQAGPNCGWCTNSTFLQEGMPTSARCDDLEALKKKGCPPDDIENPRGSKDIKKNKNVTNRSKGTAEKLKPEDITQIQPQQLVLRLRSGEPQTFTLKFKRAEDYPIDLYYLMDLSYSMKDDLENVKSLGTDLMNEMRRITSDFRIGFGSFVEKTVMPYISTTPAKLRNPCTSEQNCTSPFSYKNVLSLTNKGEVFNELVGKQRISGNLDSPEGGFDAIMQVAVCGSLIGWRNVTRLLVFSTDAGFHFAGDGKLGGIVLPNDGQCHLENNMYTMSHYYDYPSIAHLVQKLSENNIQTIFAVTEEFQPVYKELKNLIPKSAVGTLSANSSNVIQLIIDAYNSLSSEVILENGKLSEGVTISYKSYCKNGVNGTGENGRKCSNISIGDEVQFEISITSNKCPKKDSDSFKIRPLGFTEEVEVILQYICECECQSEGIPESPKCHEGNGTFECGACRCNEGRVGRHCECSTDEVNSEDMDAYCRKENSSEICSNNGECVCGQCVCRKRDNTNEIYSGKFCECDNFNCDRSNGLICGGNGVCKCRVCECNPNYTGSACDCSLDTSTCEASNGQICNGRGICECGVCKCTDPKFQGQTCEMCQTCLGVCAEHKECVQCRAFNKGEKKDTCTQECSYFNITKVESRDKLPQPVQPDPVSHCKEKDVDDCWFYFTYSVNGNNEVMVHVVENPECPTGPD
Experimental: All experiments were performed on a Biacore T200 instrument (GE Healthcare) at 25°C. Sensor surfaces and other Biacore consumables were purchased from GE Healthcare. Integrin α5β1 was from R&D Systems. The running buffer, HEPES buffered saline (HBS, composed of 0.01 M HEPES, pH 7.4, 0.15 M NaCl, 3.4 mM EDTA) was filtered through a 0.22 μm membrane and supplemented with 0.05% P20. Biotinylated peptides were captured on streptavidin-coated sensor chips. Briefly, CM5 sensor chips (GE Healthcare) were preconditioned by duplicate injections of 10 mM HCl, 50 mM NaOH, each for 10 s, and water for 20 s. Before covalent immobilization of streptavidin, traces of biotinylated products that could remain in the flow system were neutralized by injecting a streptavidin solution (0.1 mg/mL in running buffer) for 5 min through all flow cells ([Baltzinger et al., 2013]). Streptavidin was then stably immobilized using standard amine-coupling methods. The flow rate was 10 μL/min. […] The equilibrium response (Req) was recorded 5 s before the end of integrin injection. The KD was determined by fitting the equilibrium response versus the [integrin] curve to a simple 1:1 interaction model with the Biacore T200 evaluation software (GE Healthcare).

cancer patients = test system: cancer patients; parameters: method as in 3 sources, one per row (each row's own in cited_ref): ref Besse et al., 2013 ||| ref Cianfrocca et al., 2006 ||| ref Alday-Parejo et al., 2019; conditions: cited from earlier work
cancer = conditions: ref Stoeltzing et al., 2003; Khalili et al., 2006; cited from earlier work
Text: Peptides also emerged as important therapeutic agents in angiogenesis-dependent diseases due to their low toxicity and high specificity ([Rosca et al., 2011]).

[2] = test system: angiogenesis, tumor growth and metastasis; parameters: method as in Almokadem and Belani, 2012; conditions: mice; ref Almokadem and Belani, 2012; cited from earlier work
α5β1 integrin [3] = biological target: T1, α5β1 integrin; experiment: Solid phase assay, binding to coated integrin; conditions: coated 25 nM α5β1 integrin; biotinylated QS-13 90 min, room temperature, 1 mM MgCl2 and CaCl2; streptavidin-peroxidase/TMB 450 nm; n = 4, 2 experiments
Experimental: Wells of a 96-well plate were coated with 25 nM α5β1 integrin (3230-A5-050; R&D Systems, Lille, France) in amounts overnight at room temperature. The coating was then blocked with TBS containing 5% dry milk, 1 mM MgCl2, and 1 mM CaCl2 for 2 h at room temperature. After washing three times with washing buffer (0.1% dry milk, 1 mM MgCl2, and 1 mM CaCl2 in TBS), the plate was incubated for 90 min at room temperature with 100 μL per well of ranging from 1.25 to 20.10^–11 moles/well biotinylated-QS-13 diluted in washing buffer. After 3 washes, 100 μL of streptavidin-peroxidase diluted 1/20000 in washing buffer were added to each well and incubated for 15 min at room temperature. After 4 washes, 100 μL per well of tetramethylbenzidine (TMB), a peroxidase substrate, were added and incubated in the dark for 15 min. The enzymatic reaction was stopped by adding 50 μL per well of 0.5 M H2SO4. The intensity of the yellow coloration was measured at 450 nm with a Biochrom Asys UVM 340 microplate reader.

HUVEC adhesion on QS-13 = HUVEC adhesion on QS-13 coating with effector preincubation; format: cell-based, Human; conditions: peptide 20 μg/mL (legend Figure 5), 30 min preincubation; adhesion 60 min; n = 8, p < 0.001
Experimental: Cells were detached with 50 mM Hepes, 125 mM NaCl, 5 mM KCl, and 1 mM EDTA, washed three times with ECGM, pre-incubated for 30 min with effectors [mouse anti-human α5β1, catalog number 555614 from BD Pharmingen (10 μg/mL), irrelevant IgG ([…])]. 10,000 cells were seeded per well of a 96 well-plate previously coated with QS-13 and saturated with 1% BSA. After 60 min, cells were washed three times with HEPES buffered Balanced Salt Solution, fixed with 1.1% glutaraldehyde solution and stained with 1% crystal violet solution. Staining was extracted with 10% acetic acid and absorbance was read at 560 nm.
For in vitro experiments, results are expressed as the mean ± SD and statistical significance were determined using Student’s t-test. For in vivo experiments, the non-parametric Mann–Whitney test was performed.

[4] = biological target: Biotinylated QS-13 (…-biot); experiment: SPR; Biacore T200, 25°C; biotinylated QS-13 captured on a streptavidin-coated CM5 chip; α5β1 integrin injected at 0.12-130 nM, 300 s; HBS (0.01 M HEPES pH 7.4, 0.15 M NaCl, 3.4 mM EDTA) with 0.05% P20; reference surface with an irrelevant biotinylated peptide; equilibrium response fitted to a 1:1 model
[5] = biological target: QS-13 peptide (…), minimal active sequence of Tetrastatin, the α4(IV) NC1 domain of collagen IV
[6] = biological target: QS-13 peptide (…), minimal active sequence of Tetrastatin, the α4(IV) NC1 domain of collagen IV; remark: listed apart in the source
α5β1 integrin [7] = biological target: T1, α5β1 integrin; parameters: method as in Sudhakar et al., 2003; conditions: ref Sudhakar et al., 2003; cited from earlier work
angiogenesis = conditions: ref Petitclerc et al., 2000; Wietecha et al., 2013; Monboisse et al., 2014; cited from earlier work
Text: Basement membrane are composed of type IV collagen in association with other minor collagens, such as collagens XVIII or XIX, laminins, nidogens, and perlecan. Type IV collagen is composed of three α(IV) chains, out of six possible [α1(IV)-α6(IV)]. Each α(IV) chain comprises a 7S N-terminal domain, a long interrupted triple helical domain and a globular C-terminal non-collagenous (NC1) domain ([Wu and Ge, 2019]).

αvβ3 integrin = conditions: tumor cell surface; ref Pasco et al., 2000; Brassart-Pasco et al., 2012; Lambert et al., 2018; cited from earlier work
Text: The NC1 domains of the different α(IV) collagen chains were reported to exert anti-tumor or anti-angiogenic effects ([Mundel and Kalluri, 2007]; [Monboisse et al., 2014]; [Brassart-Pasco et al., 2020]).

CC[C@H](C)[C@H](NC(=O)[C@H](CCCCN)NC(=O)[C@@H](N)CCC(N)=O)C(=O)N[C@@H](CO)C(=O)N[C@@H](CCCNC(=N)N)C(=O)N[C@H]1CSSC[C@@H](C(=O)N[C@H](C(=O)N[C@@H](CCCCN)C(=O)N[C@@H](Cc2ccc(O)cc2)C(=O)N[C@@H](CO)C(=O)O)C(C)C)NC(=O)[C@H](C(C)C)NC(=O)[C@H](CCC(N)=O)NC1=O [QS-13, QKISRCQVCVKYS] (H-QKISRCQVCVKYS-OH; disulfide 6-9) showed a Kd (α5β1 integrin [1]) of 20.3 ± 7.5 nM.

For “Ac-PHSCN-NH(2) [ATN-161, reference compound]”, the clinical benefit (cancer patients; ref Cianfrocca et al., 2006) is given as “failed to provide therapeutic benefits” and the preclinical anti-cancer activity (cancer) is given as “showed preclinical anti-cancer activities”.

For “M200/volociximab: anti-α5β1 integrin antibody”, the “effect on angiogenesis, tumor growth and metastasis” value [2] is listed as “inhibit angiogenesis and to suppress tumor growth and metastasis in mice” and the “efficacy in advanced NSCLC” value (cancer patients; ref Besse et al., 2013) is listed as “preliminary evidence of efficacy in advanced NSCLC”.

With “QKISRCQVCVKYSK-biot (disulfide) [biotinylated-QS-13]” the “binding to α5β1 integrin” value (α5β1 integrin [3]) was “binds to α5β1 integrin in a ligand concentration dependent manner”.

With “RGDS [RGDS peptide, RGDS peptide (Sigma)]” the “inhibition of HUVEC adhesion on QS-13 coating (peptide competition)” value (HUVEC adhesion on QS-13) was “about 60%”.

In the case of “α5β1 integrin (recombinant, R&D Systems 3230-A5-050) (from UniProt P08648 42-1049; P05556 21-728) (receptor)”, the Kd [4] is reported as 20.3 nM.

Work on “α5β1 integrin of Human Umbilical Vein Endothelial Cells (HUVEC) (from UniProt P05556 21-798) (receptor)” yielded an HUVEC adhesion on coated QS-13 after pre-incubation of the cells with a blocking anti-α5β1 integrin antibody (10 μg/mL): inhibition of adhesion; an irrelevant IgG had no effect [5] of 71% and an HUVEC adhesion on coated QS-13 after 30 min pre-incubation of the cells with RGDS peptide: change of adhesion [6] of -60%.

B1: endostatin: 20-kDa C-terminal fragment of type XVIII collagen (protein, UniProt P39060 1572-1754, looked up)
Endostatin: HSHRDFQPVLHLVALNSPLSGGMRGIRGADFQCFQQARAVGLAGTFRAFLSSRLQDLYSIVRRADRAAVPIVNLKDELLFPSWEALFSGSEGPLKPGARIFSFDGKDVLRHPTWPQKSVWHGSDPNGRRLTESYCETWRTEAPSATGQASSLLGGRLLGQSAASCHHAYIVLCIENSFMTASK
modifications: Endostatin
notes: 20-kDa C-terminal fragment of type XVIII collagen
For B1, the “effect on α5β1 integrin” value (α5β1 integrin [7]) is listed as “inhibit α5β1 integrin” and the “clinical results with chemotherapies and radiotherapies” value (cancer patients; combination, ref Alday-Parejo et al., 2019) is listed as “the results were inconsistent”.

B2: Tumstatin: the α3(IV) NC1 domain (protein, UniProt Q01955 1426-1670, looked up)
Tumstatin: PGLKGKRGDSGSPATWTTRGFVFTRHSQTTAIPSCPEGTVPLYSGFSFLFVQGNQRAHGQDLGTLGSCLQRFTTMPFLFCNVNDVCNFASRNDYSYWLSTPALMPMNMAPITGRALEPYISRCTVCEGPAIAIAVHSQTTDIPPCPHGWISLWKGFSFIMFTSAGSEGTGQALASPGSCLEEFRASPFLECHGRGTCNYYSNSYSFWLASLNPERMFRKPIPSTVKAGELEKIISRCQVCMKKRH
modifications: Tumstatin
notes: the α3(IV) NC1 domain
For B2, the effect on angiogenesis (angiogenesis) is listed as “inhibit angiogenesis” and the “integrin mediating anti-tumor activity” value (αvβ3 integrin) is listed as “mediated through binding to αvβ3 integrin”.

B3: Arresten: the α1(IV) NC1 domain (protein, UniProt P02462 1445-1669, looked up)
Arresten: GFLVTRHSQTIDDPQCPSGTKILYHGYSLLYVQGNERAHGQDLGTAGSCLRKFSTMPFLFCNINNVCNFASRNDYSYWLSTPEPMPMSMAPITGENIRPFISRCAVCEAPAMVMAVHSQTIQIPPCPSGWSSLWIGYSFVMHTSAGAEGSGQALASPGSCLEEFRSAPFIECHGRGTCNYYANAYSFWLATIERSEMFKKPTPSTLKAGELRTHVSRCQVCMRRT
modifications: Arresten
notes: the α1(IV) NC1 domain
For B3, the effect on angiogenesis (angiogenesis) is listed as “inhibit angiogenesis”.

B4: Canstatin: the α2(IV) NC1 domain (protein, UniProt P08572 1486-1712, looked up)
Canstatin: VSIGYLLVKHSQTDQEPMCPVGMNKLWSGYSLLYFEGQEKAHNQDLGLAGSCLARFSTMPFLYCNPGDVCYYASRNDKSYWLSTTAPLPMMPVAEDEIKPYISRCSVCEAPAIAIAVHSQDVSIPHCPAGWRSLWIGYSFLMHTAAGDEGGGQSLVSPGSCLEDFRATPFIECNGGRGTCHYYANKYSFWLTTIPEQSFQGSPSADTLKAGLIRTHISRCQVCMKNL
modifications: Canstatin
notes: the α2(IV) NC1 domain
For B4, the effect on angiogenesis (angiogenesis) is given as “inhibit angiogenesis”.
